# Experimental data as given in patent US20250333486A1, “Anti-HSP90 alpha antibody and uses thereof” (NATIONAL HEALTH RESEARCH INSTITUTES, priority 2021, published 2025).
# Entries after “also recorded” stand apart in the source; their conditions may differ.
# Key:
# SW620 and PANC-1 cells = test: Transwell invasion assay, rHSP90α-induced cancer cell invasion; format: cell-based, human; settings: conclusion statement
# Method: In a 37° C. and 5% CO2 humidified incubator, cancer cells were subjected to serum starvation in 0.5% FBS-containing medium for 16 h, and then added with PBS or 15 μg/ml of rHSP90α in the absence or presence of 10 μg/ml of control IgG or the tested anti-HSP90α antibody. After another 24 h, the treated cells were harvested as aliquots (1×10^5 cells per aliquot) in 0.5% FBS-containing culture medium, and then each aliquot was seeded into a top chamber of Transwell inserts pre-coated with 5-fold diluted Matrigel (BD Biosciences). Cells were allowed 16 h to invade through the Matrigel toward the bottom chambers containing culture medium plus 10% FBS. The filters of the Transwell inserts were then fixed and stained with Giemsa. Invasive cells on the lower side of filters were photographed using the Axiovert S100/AxioCam HR microscope system (Carl Zeiss, Oberkochen, Germany) and further quantified by the Image-Pro Plus software (Media Cybernetics, Inc., Silver Spring, MD, USA).
# [1] = Mouse splenic enlargement; settings: in vivo
# [2] = system: ARPE-19 retinal pigmented epithelial cells; test: Retinal cell toxicity assay (MTS); format: cell-based, human; settings: 72 h, up to 594.3 nM (100 μg/ml)
# Method: ARPE-19 cells were seeded onto 96-well plates at a density of 4000 cells per well, and then treated in triplicate with various concentrations of 17-AAG or anti-HSP90α antibody HH01 for 72 h. The 3-(4,5-dimethylthiazol-2-yl)-5-(3-carboxymethoxyphenyl)-2-(4-sulfophenyl)-2H-tetrazolium (MTS; Sigma-Aldrich) assay was employed and OD490 was measured to evaluate cell viability upon each treatment.
# [3] = system: SW620, PANC-1, and Panc 02 cells; test: Cell spheroid-forming assay, rHSP90α-induced gain-of-stemness; format: cell-based, human and mouse; settings: conclusion statement
# Method: One thousand cancer cells were seeded onto each well of 24-well plates pre-coated with a 4-mm thick layer of 0.5% agarose. After incubation 24 h with serum-free medium at 37° C. plus a 5% CO2 humidified atmosphere, cells were added with PBS or 15 μg/ml of rHSP90α in the absence or presence of 10 μg/ml of control IgG or the tested anti-HSP90α antibody. The incubation was kept for 10-14 days with supplements of some fresh serum-free medium every 3 days. Finally, the cell spheroids characterized by tight, non-adherent, and >100 μm in diameter were photographed and counted under an Olympus IX 71 inverted microscope (Center Valley, PA, USA). The spheroid formation % was calculated by the formula: (number of cell spheroids/1000)×100%.
# [4] = system: Panc 02 plus rHSP90α-treated BMDM cell grafts; test: Therapeutic efficacy in M2-macrophage-exacerbated mouse PDAC model; format: in vivo
# Method: Mouse experiments were performed with the permission of the Institutional Animal Care and Use Committee of National Health Research Institutes (NHRI-IACUC-106031-A, 109022-M2-S02, and 109196-A). To establish a desmoplastic tumor transplant model, C57BL/6 mice at 12 weeks of age were subcutaneously inoculated with a mix of Panc 02 cells and EndoMT-derived CAFs (i.e. OPN-treated 3B-11 cells). See Fan C S, Chen L L, Hsu T A, et al. Endothelial-mesenchymal transition harnesses HSP90α-secreting M2-macrophages to exacerbate pancreatic ductal adenocarcinoma. J Hematol Oncol 2019;12:138; and Chua K V, Fan C S, Chen L L, Chen C C, Hsieh S C, Huang T S. Octyl gallate induces pancreatic ductal adenocarcinoma cell apoptosis and suppresses endothelial-mesenchymal transition-promoted M2-macrophages, HSP90α secretion, and tumor growth. Cells 2020;9(1):91. Sizes of developing tumors were superficially measured with a Vernier caliper, and tumor volumes were calculated with the formula ½×length×width^2. Real tumors were weighed when mice were sacrificed. To establish a desmoplastic tumor transplant model in humanized mice, NOD-SCID IL2R^null (ASID) mice transplanted with human hematopoietic stem cells (hHSC) were subcutaneously inoculated with a mix of PANC-1 cells and OPN-treated HUVECs. The employed hHSC-transplanted ASID mice were produced from the National Laboratory Animal Center (Taipei, Taiwan) and all contained human CD45^+ cell levels more than 38% of total lymphocytes. To establish an M2-macrophage-exacerbated mouse PDAC model, C57BL/6 mice were subcutaneously inoculated with a mix of Panc 02 cells and rHSP90α-treated BMDMs. Additionally, LSL-KrasG12D/Pdx1-Cre transgenic mice were adopted as a spontaneously PDAC-developing mouse model to evaluate the therapeutic efficacy of HH01 antibody. LSL-KrasG12D and Pdx1-Cre breeder mice were obtained from the Mouse Models of Human Cancers Consortium Repository of the National Cancer Institute (Frederick, Maryland, USA). LSL-KrasG12D mice were crossed with Pdx1-Cre mice to generate LSL-KrasG12D/Pdx1-Cre mice.
# For assaying the HSP90α-binding activities of the prepared antibodies, 96-well plates were coated with 12.5 ng/ml of rHSP90α in the capture buffer (BioLegend, San Diego, CA, USA) by overnight incubation at 4° C. The coated plates were washed twice with PBST and then blocked with PBST plus 3% bovine serum albumin (BSA). The prepared antibodies were applied and incubated 2 h at room temperature. After three washes with PBST, horseradish peroxidase-conjugated secondary antibody was added and incubated at 37° C. for another 1 h. After three washes, 0.3 mg/ml of 3,3′,5,5′-tetramethylbenzidine in 0.015% H2O2 was added into each well and incubated in the dark at room temperature for 10 min. The reactions were stopped by the addition of 0.5 M H2SO4, and OD450 values were measured by an Infinite M200 microplate reader (TECAN, Männedorf, Switzerland). Additionally, the immunoglobulin (IgG) isotype characterization of anti-HSP90α antibodies was performed by using the Mouse Ig Isotyping ELISA Ready-Set-Go!™ Kit (eBioscience™, Thermo Fisher Scientific, Waltham, MA, USA). The ELISA protocol was also used to assay the secreted HSP90α levels of mouse serum samples as described previously. See Chen J S, Hsu Y M, Chen C C, Chen L L, Lee C C, Huang T S. Secreted heat shock protein 90α induces colorectal cancer cell invasion through CD91/LRP-1 and NF-κB-mediated integrin αV expression. J Biol Chem 2010;285(33):25458-66.
# Mouse tissue sections with a 4-μm thickness were deparaffinized by xylene and rehydrated in graded ethanol dilutions. Antigen retrieval was performed by heating the sections for 15 min in 10 mM of citrate buffer, pH 6.0, under high pressure. The endogenous peroxidase activity was blocked by 0.3% H2O2. Before staining, the sections were blocked 30 min with PBS plus 3% BSA at room temperature in a humidified chamber. […]
# [5] = 5 mg/kg from Day-27, second dose after 7 days
# [6] = immunohistofluorescent staining of tumor tissues
molecule,measurement,setting,value
"HH01: humanized anti-HSP90α IgG1 antibody, mutant of Clone-2-chimera; VH SEQ ID NO: 12, VL SEQ ID NO: 17 (antibody, V domains shown, Heavy chain variable region; Light chain variable region) VH: EVQLVESGGGLVQPGGSLRLSCAASGFTFKTYAMNWVRQAPGQGLEWVARIRSKSRNYATYYADSVKDRFTISRDDSKNQFYLQMNNLRTEDTAVYYCVVGGSGFDYWGQGTTLTVSS VL: DVVMTQTPLSLPVSLGDQASISCRSSQSIVHSNGNTYLEWYLQKPGQSPQLLIYKVSNRFSGVPDRFSGSGSGTDFTLTISSVEAEDLGVYYCFQGSHVPWTFGGGTKLEIK",invasive activities of pancreatic adenocarcinoma and colorectal cancer cell lines,SW620 and PANC-1 cells,potently suppresses
same,mouse splenic enlargement,[1],will not cause mouse splenic enlargement
same,cytotoxicity in ARPE-19 cells,[2],did not cause any obvious cytotoxicity; also recorded: not cytotoxic
same,spheroid-forming activities of pancreatic adenocarcinoma and colorectal cancer cell lines,[3],potently suppresses
same,elevation of serum HSP90α levels,[4]; [5],significantly suppressed
same,tumor volume,[4]; [5],drastic tumor shrinkage upon HH01 treatment was observed immediately after 3 days
same,tumors on Day-42,[4]; [5],shrank significantly
same,CD4^+TNF-α^+ (effective T) cells,[4]; [6],both increased
same,CD8^+TNF-α^+ (cytotoxic T) cells,[4]; [6],both increased
same,F4/80^+Arginase1^+ (M2) cells,[4]; [6],decrease
same,F4/80^+iNOS^+ (M1) cells,[4]; [6],increase
same,CD4^+ and CD8^+ cell levels in tumor (immunohistochemistry),[4]; tumor samples,effectively restored
same,"M2-macrophages in tumor (CD163, CD204 immunohistochemistry)",[4]; tumor samples,M2-macrophage reduction
